According to US20230348858, “COMPOSITIONS AND METHODS FOR PROMOTING PROLIFERATION IN CARDIOMYOCYTES” (THE TRUSTEES OF INDIANA UNIVERSITY, published 2023):

Target: Brg1 helicase domain D1D2 (Mus musculus, UniProt Q3TKT4 SEQ:1-431)
Assay: EMSA; 10 mM HEPES-KOH pH 7.3, 10 mM NaCl, 1 mM MgCl2, 1 mM DTT, tRNA carrier, room temp
Settings: tags: MBP fusion; label: 5'-biotin
Procedure: Biotin-labelled RNA control probe: [0158] Biotin—5′[…]-3′ (SEQ ID NO 25); and Biotin-labelled RNA probe with m⁶A: [0159] Biotin—5′[…](m⁶A)[…]-3′ (SEQ ID NO 26); were synthesized by Gene Link (Orlando, Fla.). EMSA was performed by using the LightShift™ Chemiluminescent RNA EMSA Kit (Cat. 20158, Thermo Scientific). The labelled probe was incubated with appropriate amounts of recombinant proteins in 10 μl in the 1× binding buffer (10 mM HEPES-KOH, pH 7.3, 10 mM NaCl, 1 mM MgCl2, 1 mM DTT) with 5 μg tRNA carrier at room temperature for 30 min. The reactions were then loaded onto 1% 0.5× TBE agarose gel and transferred to Bright Star Plus positive charged membrane. The biotin-labelled probes were detected and quantified subsequently using Odyssey Infrared Imaging System. The shifted signals were quantified and plotted against amount of the MBP-D1D2 protein ((SEQ ID NO 27) coupled to (SEQ ID NO 2)) with GraphPad Prism (GraphPad). The software facilitates the fitting of nonlinear regression model and calculation of Kd values based on the fitting curve. The errors and r² values were also generated from the fitting curve.

Brg1 helicase domain D1D2, sequence (Q3TKT4 774-1204): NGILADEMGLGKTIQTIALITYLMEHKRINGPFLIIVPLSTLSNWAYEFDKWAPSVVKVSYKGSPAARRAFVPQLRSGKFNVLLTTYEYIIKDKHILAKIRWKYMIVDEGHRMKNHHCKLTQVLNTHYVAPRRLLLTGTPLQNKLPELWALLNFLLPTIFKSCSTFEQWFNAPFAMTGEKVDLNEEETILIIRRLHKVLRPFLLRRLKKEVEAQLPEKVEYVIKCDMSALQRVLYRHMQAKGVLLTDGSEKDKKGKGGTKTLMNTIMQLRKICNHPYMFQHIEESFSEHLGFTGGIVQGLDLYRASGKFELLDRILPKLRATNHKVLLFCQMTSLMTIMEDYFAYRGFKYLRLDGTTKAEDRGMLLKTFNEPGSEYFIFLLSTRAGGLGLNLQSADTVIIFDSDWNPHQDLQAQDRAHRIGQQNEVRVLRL

## UCGUCAUGGCUGAACUGCGGUUGUACACGCUGGUGCAGAGAGAUCGCAU (ssRNA, m6A at A25 (M2 adenosine)) [Bmp10 RNA probe with m6A (49 nt)]
  Kd: 176 nM
